Test results: the supplement of paper PMC12042874
± gives the uncertainty stated by the source.

experiment: amyloid nucleation score (Sup35N fusion, yeast selection) (log enrichment); library NNK2; higher = more nucleation; inactive = no reads after selection
Summary of the method: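 On medium lacking adenine and uracil, psi-negative yeast expressing peptides of 20 random codons fused to Sup35N were grown 7 days at 30°C after a 24-hour induction with 100 μM copper sulfate. Illumina sequencing of input and output plasmid inserts gave the reads, and sequences under 100 input reads were excluded. The nucleation score is the DiMSum log enrichment of output over input reads, centred on the mode score of non-aggregating sequences.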

Substance	amyloid nucleation score
DDDRPDEAYEYDVSGF	-1.03 ± 0.54
DDFGCLYFYILYS	inactive
DDNVLYCYSYVVHESLSAAQ	0.354 ± 0.3
DDSFML	-0.134 ± 1.1
DEIVSERDIVSSNRLCGSIM	-0.561 ± 1.1
DFCSLATYGKRGFCDMYYYV	0.343 ± 0.35
DFDSQRSLKSSDRRFVTFTY	-0.869 ± 0.55
DFGRWSTSGSVPCSGATCAV	2.43 ± 0.2
DFILGYVDS	-0.65 ± 1
DFLWTFVGNFLE	-1.43 ± 0.78
DFNIIECSPGRGVHHDDWEP	inactive
DFSTLAPLKLVMHI	-0.267 ± 0.54
DFVRY	-0.484 ± 0.63
DFYVSVPLRNCFSMSFIKWV	-0.766 ± 0.48
DGFVVASISWGSNFLVFFIY	inactive
DGMSRSVRKNCEAGCRRSFG	4.58 ± 0.048
DGNWL	-0.385 ± 0.76
DGRADFYSCVCLYYSWNGY	3.62 ± 0.037
DGRIVYEPSKSARFWKVKCL	-0.335 ± 0.79
DGSHYFIVRDPVNSCLSSWV	-0.668 ± 0.36
DGVCKFQELMSFPGKLYS	-0.447 ± 0.5
DGVNAFNR	0.203 ± 0.2
DHLYMYWGAQ	1.02 ± 0.37
DHRLYQSFKALRVPSVVLRG	-0.766 ± 0.79
DHRRCDSMRTDC	0.098 ± 1

Substance	amyloid nucleation score
DIAKLLCYILCFNGKSRRWG	0.127 ± 0.55
DIARDLVWGLRSNAGAQLGN	0.54 ± 0.44
DICNWHLYDNCLSICSGYR	0.951 ± 0.81
DIGSMYEMLCRVVTIVLPRS	-0.723 ± 1.1
DIIAPEKNFIIYY	inactive
DIIVVQCIVSVMCTMRASRS	5.897 ± 0.051
DIRMLERTNLIPYNKQVMGM	0.163 ± 0.29
DISELDVCFL	-0.287 ± 0.33
DITYEYTTWGFLRRQAIRRP	3.63 ± 0.089
DITYQHDGVIE	-0.789 ± 0.32
DIVIYWV	-0.139 ± 0.63
DIVQIWCWFRGC	10.25 ± 0.029
DKCDMTSTIVSLLVSTPKWS	-0.142 ± 0.34
DKICNYVVGGEVYFSMNHYW	8.327 ± 0.047
DKIRTSKAISQIWLLPIYFE	0.491 ± 0.57
DKPLQWHGCVRKKSTRGRGW	0.927 ± 0.45
DKREQRLRQSQILMCGDGGF	0.157 ± 0.76
DKRIGRVCHSLKIVWCTIML	-0.089 ± 0.41
DKRLCLMVCNLLVYYMPF	-0.952 ± 0.63
DLAELISVKYLVTVSLWAGS	0.621 ± 0.57
DLARPDFKLIYSYGSNSPGS	-1.38 ± 0.64
DLEYF	-1.56 ± 0.54
DLFGCFVNCRSRL	2.89 ± 0.092
DLGYDLTINWAFERLADRVN	-1.46 ± 1
DLIGPYRVLRFCRWV	2.8 ± 0.099

Substance	amyloid nucleation score
DLIYGGYST	inactive
DLRYTMYYDCFCYVFCPSMT	8.166 ± 0.059
DLSSALRAMRSYSHLSTVGI	inactive
DLVHFLRNRWCGIR	-0.73 ± 0.55
DLVVYLSPVGGTGRFYEVGA	3.92 ± 0.062
DMHCFSEGRHGGLTCAGCLR	1.1 ± 0.19
DMMRFYGAPDGQGNTHQNRT	1.63 ± 0.12
DMRLWCVWSSIACDTSYSTS	0.26 ± 0.2
DMSSHGGWFRPRRFLEISPL	0.183 ± 1
DMWMRVILSDNGNQEVPK	-0.293 ± 0.27
DNIKTVSRMTWPWLMFTVGG	0.3 ± 0.55
DNSVHCSFSYFNLPELKGCY	3.8 ± 0.065
DNTLLALVGM	1.57 ± 0.58
DNVLYHPDGFGMISALTGVV	-0.753 ± 0.45
DNYLYYYFYSFRLTEALFIC	-0.297 ± 1.1
DNYSRCGICWVSLRVLYVRR	inactive
DPITFEVSCNANVIDPNSLV	-1.22 ± 0.38
DPVTMLYSF	0.179 ± 0.32
DQALGGEMWWL	-0.14 ± 0.45
DQCELVSGVWLSIRSADLPY	0.176 ± 0.35
DQFWSENRIDYDNLAIRLQL	-1.1 ± 0.76
DQLVQGYGNTGWQLGYRMAG	5.35 ± 0.056
DQTWNWNVGIGFYRSYFLMY	inactive
DRARMYYYSEIHSVVTSIIK	inactive
DRFRDVIICFFKCTCNRITQ	4.949 ± 0.034

Substance	amyloid nucleation score
DRFRYICSYVENSDYLLRCL	inactive
DRFVLIVHINRGRV	3.86 ± 0.048
DRGYKSYGG	0.775 ± 0.74
DRLLRSRLGIRSNRIVCW	-0.539 ± 0.36
DRRLCLCLLIMSC	-0.578 ± 0.79
DRWEPKLI	-0.516 ± 0.23
DRYHDTMAMKARVWSDRCKS	1.94 ± 0.34
DSCCMSYSRQNCTY	0.218 ± 0.8
DSDLLVTHMVMLYKHVE	3.79 ± 0.065
DSFVIAVLQIIPYTLTQHSK	1.7 ± 0.085
DSGEPWILMFLDGYLSAMRL	-0.513 ± 0.61
DSGFFWCV	inactive
DSLINFRLKVPTMLCMFCWI	0.401 ± 0.62
DSRIGYTSYQRFTMKSNVLC	0.024 ± 0.44
DSSGFCMMVYYIQ	-0.365 ± 0.76
DSSIDRWF	1.15 ± 0.22
DSSRAVLGVIRYSSEGSL	-0.34 ± 0.41
DSVCYNFNFNTF	5.711 ± 0.027
DSVIWVCIVWRRSSSTMCVM	1.01 ± 0.38
DSWSIMWSLC	-0.272 ± 1.1
DTKTIRFLYKRYRLSWQVSE	4.587 ± 0.04
DTLFNCFSCIVKLMSYIKSL	inactive
DTMDSAAFTLHCIVWGYPVG	inactive
DTRLIGECQLGSGVTVLSLG	0.252 ± 0.27
DTSAIFSYALLL	4.56 ± 0.058

Substance	amyloid nucleation score
DVETL	-1.24 ± 0.41
DVFGRGLMKEMGFVNFTLYY	inactive
DVHFCNNLLLKRRRGSVVA	-0.153 ± 0.41
DVKKYLRGYCIRPCLLSYLI	-0.807 ± 0.79
DVLGLSGACFGITERVDRLA	2.32 ± 0.1
DVPLCLYCMYLSSFRVVIWM	2.35 ± 0.1
DVQGWFVITSGFADGSQARR	1.19 ± 0.17
DVRHQWFEMVRVVIICKPVN	-0.149 ± 0.42
DVRSRVHWDMSDQQFIMWWV	-0.716 ± 1.1
DWCWAMDLYSFVFHCRLEAF	-0.658 ± 1
DYDNW	-0.618 ± 1.1
DYKDYNLCGITHMESF	-0.442 ± 1
DYLCGNFKCYCVFTNDGNRF	2.42 ± 0.21
DYLRYRYSMFCTCPAVTQS	-0.567 ± 0.78
DYRMCI	0.926 ± 0.48
DYSGYHFMEQVP	-0.363 ± 0.33
DYSSVVYNDGIWKGAPNFK	-2.05 ± 0.78
DYTSVSMVIHVCKRL	5.59 ± 0.097
DYVSRKCFRDKWSERSSCRG	0.085 ± 0.37
DYYRPIIGH	-0.407 ± 0.28
EAFYLSFFN	inactive
EARVSRLFT	0.542 ± 0.18
ECDYRTLSLNMVLNYCRKGG	5.955 ± 0.046
ECNSSALHNWKY	0.088 ± 0.54
ECSHQIL	-0.179 ± 0.63

Substance	amyloid nucleation score
EDAFMSFCMVRLWDHF	-0.089 ± 1.1
EDIGSGGKTRFLDRRWVFCN	inactive
EDKLFINLSRELVFGKIRPT	6.138 ± 0.053
EESSTKGMTG	-0.014 ± 0.26
EFMNDVIILIYLSFKRTILN	-0.541 ± 1.1
EFMYKQCRYIVTPYGLVVSR	-0.557 ± 1.1
EFRNLT	-0.213 ± 0.18
EFTAFYGQEFKW	0.182 ± 1.1
EGICFLLMDCSCNNCFLALA	4.66 ± 0.055
EGLRVEMCYGKNVSFMIGSY	5.727 ± 0.049
EGMSI	inactive
EHLWYLIREIPNHEFKNKLE	0.073 ± 0.42
EIMSFSVRSKYAFWIPIAIC	-0.026 ± 0.53
EIQHRNTAYYRSVSVGPTAV	0.987 ± 0.67
EIYCCAYPLFCVWVVTGIRL	1.62 ± 0.13
ELSHSLSIKATVEGS	0.279 ± 0.56
ELVRDASECRYIIVCLNSVA	-0.047 ± 0.65
ELYWGS	0.509 ± 0.57
EMSGY	inactive
EMVQVVSAQGKTKL	8.461 ± 0.061
ENCFVSICVGSATLGMCSSG	8.02 ± 0.034
ENKGGCFARVDVGCVGSGMR	0.014 ± 0.42
ENLKCEPLGRVRLKDHVYVV	0.228 ± 0.27
ENNVKLIRNTTNTVVYHLIP	7.64 ± 0.06
EPHSAI	-0.1 ± 1

Substance	amyloid nucleation score
ERKHTFHAVGHGLQESLVRF	-0.212 ± 0.45
ERMSLMGWDFIKCRISLAMS	-0.021 ± 0.65
ERNLLRNSDDMD	-0.642 ± 1.1
ERYVCKGC	inactive
ESIRAGLRRSRLWNRGFGES	0.738 ± 0.27
ESLGDSI	-0.352 ± 1
ESNMSKLAFRRDTVF	inactive
ESRGSCSIKNYRLVWDC	-0.451 ± 0.74
ESSSVKPPVRFLW	0.455 ± 0.64
ESYIWMLRGHMLCKDEVMNV	-0.611 ± 0.74
ETLAVLRIPCSRLYDHIYNF	-0.791 ± 0.78
ETTNTQVNAIVRNFGQ	0.002 ± 0.55
EVEIEE	-0.576 ± 0.76
EVERGIN	0.62 ± 0.56
EVFACTSG	1.56 ± 0.44
EVMCMSRYDPR	-0.557 ± 1.1
EVRIDHGHVIA	0.293 ± 0.43
EWIIERRSL	-0.279 ± 0.63
EWVMKSWV	-0.578 ± 1.1
EYEYGGYNSMNLNYIVARSE	0.218 ± 0.48
EYLRPSWSH	-0.971 ± 0.56
EYNDRCV	0.974 ± 0.28
EYRYCMTHYYFLRCKLFNIF	-1.06 ± 0.63
FAAHCFDFMIHVPMGPAENK	3.69 ± 0.13
